Legend:
[1] = molecular target: T1, synthetic peptide P(29→46), AAGGSVPHPRCHCGAGRA (human); test: ELISA on synthetic CεmX peptides
T1 construct: Residues are counted on the CεmX domain
T1 peptide: AAGGSVPHPRCHCGAGRA

[2] = molecular target: T2, synthetic peptide P(33→46), SVPHPRCHCGAGRA (human); test: ELISA on synthetic CεmX peptides
T2 construct: Residues are counted on the CεmX domain
T2 peptide: SVPHPRCHCGAGRA

[3] = molecular target: T3, synthetic peptide P(27→40) (human); test: ELISA on synthetic CεmX peptides
T3 construct: Residues are counted on the CεmX domain; also called Peptide M1′-8
T3 peptide: PRAAGGSVPHPRCH

[4] = molecular target: T4, synthetic 22 amino acid peptide P(25→46), GLPRAAGGSVPHPRCHCGAGRA (human); test: ELISA, plate coated with P(25→46)
T4 construct: Residues 25-46 are counted on the CεmX domain; The peptide was coated on the ELISA plates without a carrier; the OVA conjugate was used only for immunization; also called target antigen peptide
T4 peptide: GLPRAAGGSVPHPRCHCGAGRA
Method: To screen hybridomas for antibody secretion and to map the epitopes of secreted antibodies, the wells of microtiter plates were coated by incubating them overnight at 4° C. with 10 μg/mL of P(25→46) in 0.1 M carbonate buffer, pH 9.6. The wells were first blocked for 1 hour with 1% bovine serum albumin (BSA) in phosphate buffered saline (PBS), pH7.3, and then incubated for 1 hour at 37° C. at various dilutions with antisera or control antibodies. The wells were then washed and the ligand-bound antibodies detected by horse radish peroxidase (HRP)-conjugated goat anti-mouse IgG, Fcγ fragment specific (Jackson ImmunoResearch), or anti-human IgG, Fcγ fragment specific (Jackson ImmunoResearch) at a dilution of 1:10,000. To detect the ligand-bound antibodies, the wells were incubated for 1 hour at 37° C., followed by incubation with TMB (3,3′,5,5′-tetramethylbenzidine) substrate (Clinical Scientific Products).
One of the monoclonal antibodies specific for an epitope within the P(25→46), herein designated mAb 23B11, was subjected to epitope mapping studies. Several peptides representing parts of the consecutive P(25→46) were synthesized, including P(29→46) (SEQ ID NO:1); P(31→46) (SEQ ID NO:3), P(33→46) (SEQ ID NO:4), P(27→40) (SEQ ID NO:5), and […] (SEQ ID NO:6), as shown in FIG. 1A. […] The reactivity of mAb 23B11 with the synthesized peptides were analyzed by ELISA. […]

Measured: binding result

B1: monoclonal antibody mAb 23B11 (antibody, V domains shown)
VH: EVQLQQSGAELMKPGASVKISCKASGYTFSSYWIEWVYQRPGHGLEWIGEILPGSGSSNYNEKFEGKATFTADTSSNTAYMHLSSLTSEDSAVYYCARWDYYGGRGFDYWGQGTTLTAAA
VL: DIVMTQAAPSVPVTPGESVSISCRSSKSLLHSNGNIYLHWFLQRPGQSPQLLIYRMSNVASGVPDRFSGSGSGTVFTLRISRVEAEDVGVYYCMQNLEYPLTFGAGTKLELK
notes: Murine hybridoma antibody from BALB/c mice, detected with anti-mouse IgG
binds: all assays above
